B1: Serine protease HTRA2, mitochondrial (Homo sapiens), O43464 (parent)
chain: MAAPRAGRGAGWSLRAWRALGGIRWGRRPRLTPDLRALLTSGTSDPRARVTYGTPSLWARLSVGVTEPRACLTSGTPGPRAQLTAVTPDTRTREASENSGTRSRAWLAVALGAGGAVLLLLWGGGRGPPAVLAAVPSPPPASPRSQYNFIADVVEKTAPAVVYIEILDRHPFLGREVPISNGSGFVVAADGLIVTNAHVVADRRRVRVRLLSGDTYEAVVTAVDPVADIATLRIQTKEPLPTLPLGRSADVRQGEFVVAMGSPFALQNTITSGIVSSAQRPARDLGLPQTNVEYIQTDAAIDFGNSGGPLVNLDGEVIGVNTMKVTAGISFAIPSDRLREFLHRGEKKNSSSGISGSQRRYIGVMMLTLSPSILAELQLREPSFPDVQHGVLIHKVILGSPAHRAGLRPGDVILAIGEQMVQNAEDVYEAVRTQSQLAVQIRRGRETLTLYVTPEVTE
partner: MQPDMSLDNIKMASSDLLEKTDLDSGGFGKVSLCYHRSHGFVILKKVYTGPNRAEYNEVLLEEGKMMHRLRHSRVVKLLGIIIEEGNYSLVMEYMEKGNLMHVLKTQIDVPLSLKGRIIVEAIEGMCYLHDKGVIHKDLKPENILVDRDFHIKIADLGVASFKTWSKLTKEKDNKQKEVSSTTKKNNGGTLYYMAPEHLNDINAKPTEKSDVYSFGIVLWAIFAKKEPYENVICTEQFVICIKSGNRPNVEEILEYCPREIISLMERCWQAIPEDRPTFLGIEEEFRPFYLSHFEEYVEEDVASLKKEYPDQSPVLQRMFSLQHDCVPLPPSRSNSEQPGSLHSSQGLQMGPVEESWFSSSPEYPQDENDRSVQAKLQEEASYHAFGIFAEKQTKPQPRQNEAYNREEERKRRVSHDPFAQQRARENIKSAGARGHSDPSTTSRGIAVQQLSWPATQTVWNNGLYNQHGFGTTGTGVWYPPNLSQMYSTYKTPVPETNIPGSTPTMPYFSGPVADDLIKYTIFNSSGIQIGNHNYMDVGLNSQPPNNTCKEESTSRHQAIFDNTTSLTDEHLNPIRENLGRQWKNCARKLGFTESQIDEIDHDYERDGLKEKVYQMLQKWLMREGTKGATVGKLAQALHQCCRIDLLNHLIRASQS

Variants of: B1
Conditions: with ripk1_mouse Ripk1, Q60855

| Variant | effect of a mutation on the interaction |
| --- | --- |
| MAAPRAGRGAGWSLRAWRALGGIRWGRRPRLTPDLRALLTSGTSDPRARVTYGTPSLWARLSVGVTEPRACLTSGTPGPRAQLTAVTPDTRTREASENSGTRSRAWLAVALGAGGAVLLLLWGGGRGPPAVLAAVPSPPPASPRSQYNFIADVVEKTAPAVVYIEILDRHPFLGREVPISNGSGFVVAADGLIVTNAHVVADRRRVRVRLLSGDTYEAVVTAVDPVADIATLRIQTKEPLPTLPLGRSADVRQGEFVVAMGSPFALQNTITSGIVSSAQRPARDLGLPQTNVEYIQTDAAIDFGNAGGPLVNLDGEVIGVNTMKVTAGISFAIPSDRLREFLHRGEKKNSSSGISGSQRRYIGVMMLTLSPSILAELQLREPSFPDVQHGVLIHKVILGSPAHRAGLRPGDVILAIGEQMVQNAEDVYEAVRTQSQLAVQIRRGRETLTLYVTPEVTE [S306A] | disrupting interaction |

— IntAct's records for PubMed 20125124
